Source: publication PMC11701102, “Structural insights into the interplay between microtubule polymerases, γ-tubulin complexes and their receptors” (Nature Communications, 2025)

Tests used:
[1] = target: MBP-Spc72^231-268 (C. albicans) (UniProt Q5AGV5); assay: SEC; MBP-CM1 constructs at 100 µM
[2] = target: γ-tubulin small complex (γ-TuSC) from C. albicans: His-Spc97, His-Spc98, γ-tubulin (Tub4) (C. albicans, UniProt Q59PZ2 1-871; A0A1D8PS42 1-785; O93807 1-502); assay: MST
[3] = target: GST-CM1^231-268 (GST-Spc72^231-268) (C. albicans) (UniProt Q5AGV5); assay: mass photometry; MBP-CM1 and GST-CM1 constructs diluted to below 40 nM in SEC buffer; for the GST constructs: GST-mediated dimers to tetramers
[4] = target: the molecule itself; assay: cryo-EM structure; γ-TuSC/Spc72^1-599/FLAG-Stu2 complex purified via FLAG-Stu2; single particle analysis, γ-TuSC unit within oligomers at 3.6 Å, 14-spoked ring at 8.2 Å
[5] = target: T1, FLAG-Stu2 (C. albicans, full length) (C. albicans, UniProt A0A1D8PTZ8 1-924); assay: pull-down; FLAG-Stu2 variants from insect cell lysate on anti-FLAG M2 gel, washed, then 20 µg purified Spc72 fragments from E. coli added for 1 h; 200 mM NaCl; eluted with 3xFLAG peptide, Western blot; also called IP or co-IP; conditions: both partners purified
T1 construct: Stu2, C. albicans, full-length Met1 to Glu924; FLAG tag followed by an HRV 3C cleavage site at the 5' end; also called wild-type FLAG-Stu2; source: Sf21 insect cells; not shown: FLAG, N-terminal, kept
T1 sequence (looked up): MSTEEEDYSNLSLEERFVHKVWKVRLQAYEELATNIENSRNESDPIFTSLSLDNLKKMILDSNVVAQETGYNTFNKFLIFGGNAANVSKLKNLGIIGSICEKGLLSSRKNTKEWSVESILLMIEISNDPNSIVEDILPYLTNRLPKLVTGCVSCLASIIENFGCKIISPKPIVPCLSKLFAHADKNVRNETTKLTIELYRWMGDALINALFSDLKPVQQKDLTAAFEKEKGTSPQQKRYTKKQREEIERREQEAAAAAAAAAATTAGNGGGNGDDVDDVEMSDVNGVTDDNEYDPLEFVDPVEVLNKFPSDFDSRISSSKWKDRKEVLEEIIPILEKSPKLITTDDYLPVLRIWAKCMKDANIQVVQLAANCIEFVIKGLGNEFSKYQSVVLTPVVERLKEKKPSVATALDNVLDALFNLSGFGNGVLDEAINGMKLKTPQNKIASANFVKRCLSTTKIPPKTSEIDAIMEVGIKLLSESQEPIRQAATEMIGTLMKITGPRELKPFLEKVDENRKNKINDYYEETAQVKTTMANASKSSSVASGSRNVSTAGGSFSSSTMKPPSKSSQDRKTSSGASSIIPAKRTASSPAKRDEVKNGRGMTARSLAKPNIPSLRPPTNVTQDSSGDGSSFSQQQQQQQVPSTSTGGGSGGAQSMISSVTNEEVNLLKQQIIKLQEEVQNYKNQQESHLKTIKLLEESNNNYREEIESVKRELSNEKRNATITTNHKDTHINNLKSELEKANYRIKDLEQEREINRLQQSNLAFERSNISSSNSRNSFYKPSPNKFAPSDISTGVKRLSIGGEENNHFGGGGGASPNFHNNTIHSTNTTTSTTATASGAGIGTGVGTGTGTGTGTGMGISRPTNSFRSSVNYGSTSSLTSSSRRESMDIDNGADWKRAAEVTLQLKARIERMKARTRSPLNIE

[6] = target: T2, FLAG-Stu2^∆666-768 (coiled-coil deletion mutant) (C. albicans, UniProt A0A1D8PTZ8 1-924, ∆666-768); assay: as above; conditions: both partners purified
T2 construct: Stu2, C. albicans (Met1 to Glu924), coiled-coil region 666-768 deleted
T2 sequence: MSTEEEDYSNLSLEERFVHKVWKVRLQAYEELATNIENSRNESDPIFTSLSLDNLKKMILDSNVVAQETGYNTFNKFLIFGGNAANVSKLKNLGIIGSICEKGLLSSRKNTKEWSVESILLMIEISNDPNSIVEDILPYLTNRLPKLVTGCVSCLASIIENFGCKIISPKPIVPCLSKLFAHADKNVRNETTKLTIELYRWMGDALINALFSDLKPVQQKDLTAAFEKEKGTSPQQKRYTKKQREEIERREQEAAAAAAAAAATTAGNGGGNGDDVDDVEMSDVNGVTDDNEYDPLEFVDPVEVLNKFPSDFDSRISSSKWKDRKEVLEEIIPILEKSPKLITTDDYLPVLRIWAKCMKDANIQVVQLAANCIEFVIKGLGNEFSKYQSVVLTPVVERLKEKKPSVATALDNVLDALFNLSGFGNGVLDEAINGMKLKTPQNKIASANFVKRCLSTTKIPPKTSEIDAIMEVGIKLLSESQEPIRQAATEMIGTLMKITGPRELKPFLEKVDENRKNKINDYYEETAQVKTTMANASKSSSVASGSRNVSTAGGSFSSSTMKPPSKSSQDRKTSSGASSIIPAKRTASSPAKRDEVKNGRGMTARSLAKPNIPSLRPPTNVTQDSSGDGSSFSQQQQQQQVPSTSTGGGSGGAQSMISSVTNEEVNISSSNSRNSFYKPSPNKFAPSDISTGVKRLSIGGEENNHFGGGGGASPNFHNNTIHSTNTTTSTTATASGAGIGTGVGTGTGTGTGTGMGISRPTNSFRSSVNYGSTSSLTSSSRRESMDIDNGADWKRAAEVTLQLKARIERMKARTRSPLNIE

[7] = target: T3, FLAG-tagged γ-TuSC (FLAG-Spc98, His-Spc97, γ-tubulin) (C. albicans, UniProt A0A1D8PS42 1-785; Q59PZ2 1-871; O93807 1-502); assay: pull-down; FLAG-γ-TuSC (FLAG-Spc98) from insect cell lysate on anti-FLAG M2 gel, washed, then 20 µg purified His-Spc72 added for 1 h; 150 mM NaCl; eluted with 3xFLAG peptide, Western blot; called co-IP in the text; conditions: both partners purified
T3 construct: Spc98, C. albicans; Spc97, C. albicans; γ-tubulin (Tub4), C. albicans; also called FLAG-γ-TuSC; copies: + +

[8] = target: the molecule itself; assay: SEC-MALS + other: mass photometry; FLAG-Stu2 (10 µM) and His-Spc72^291-599 (60 µM) alone or mixed 1:1 (vol), Superdex 200 Increase 5/150, 50 mM Tris-HCl pH 7.5, 150 mM NaCl, room temperature; mass photometry below 40 nM

Work on “MBP-Spc72^231-268 (from UniProt Q5AGV5 231-268) (domain or fragment)” yielded a stoichiometry N [1] of 2.

In the case of NIATTTKSREEELNKRIVNYKIQLKLMKNFLQELIDRN (domain or fragment) [GST-CM1^231-268 (GST-Spc72^231-268)], the Kd [2] is reported as 105 nM and the stoichiometry N [3] is reported as 4.

B1: γ-tubulin (Tub4), C. albicans (natural protein, UniProt O93807 1-502, looked up)
chain: MPGETITLQVGQCGNQVGLQYWQQLATEHGIQSDGSSTPYPKDINDLQLQELNNSGSSPQSYPQQTKPNGKYRNDHPELFFTLSDSNTYTPRSILIDMEPSVIAKSTSALPMFNPRNVHLSNQGNGAANNWINGYKYGTEEEETLLNLIDREVDKCDNLSNFQLFHSVAGGTGSGVGSKMLEVISDRYGHKKLLNTFSIFPSNEDTSDVVVQPYNTILTLKRLIDYSDATFVFHNDSLNRIENILFNNNSNIQHDDNDLFLGANKLIALVSASVSNPLRFPGYMYSSMESIVSNLIPTPDLKFLTSSIAPFSTQKHNYLNEYDMLLELSNDRYKTNRVGGDTSYISMLNYLIGYNLDQREIRKGILKSQQRISFVPWVARSVLVVHGKKSPYLKNTNLEGIQVTNNTSMIDVFTKILKQFDLLIKRKAYLNRYYSSVEEENEVMEMFNESRESVKSIIDEYKACKEITYLDDDDEDDLEDGDGGGGGNGNGYNNIDDADMGI
notes: γ-tubulin (Tub4), C. albicans; Subunit of m1, written alone for the contacts in the cryo-EM structure
B1: binds [4].

B2: His-Spc72^1-599 (C. albicans), from E. coli (domain or fragment, UniProt Q5AGV5 1-599, looked up)
chain: MSNLSINESNDNSNVSILSNKSGAQSSTNSSPNLIVFKQPEDLSIQLQQQQQGTQEDTPEEEEEEEEEMEQITQLEVQQENQPDTLSSSPFISRPNSPLDDIIRPQGTSSPSLTIRDSYSSQVDINISNLHKSLNEMRLSTDPVDNNNNNNKVNKNNPTNSDISNDDIITIDNLTPSRIQPKNISPWRQFRPTLRGSPESTPRSLFQNKPNLKFNNGLSPTNGSRDMVTNNIATTTKSREEELNKRIVNYKIQLKLMKNFLQELIDRNNLDPHEFHTLLRRNNNNIMNNENNPLSTSLSQTSTLEIQHQNLQIELDEALELNKQLYNKIETANKEISDKDLQISNYESRINLINYSVDELIYILINEYDKNNYSHGGSNTTSPGKETLQQSISAQLEVKLNVLKLELMTRLDQSHQYNNKPHDLFTPPYTSSEYGVSTNNVANKNDLEGYIHIIEDLIKTVDELELTCENYKANKNELQNQLVEQINESIRIKNNFQIMSNKFNQLRQSLSEKENDKNLDEFSKNNHQQQQQQQIQQLEQKLIEYEKCITILQDELDQYKQPSDTTNTTNNNNNNNNNNNRSSYSSYNNHRNSSLNELN
notes: source: E. coli BL21 CodonPlus-RIL, purified (Ni-TED); not shown: His6, N-terminal, kept
B2: binds [5]; binds [6].

B3: His-Spc72^1-599,3R (L243R/I247R/L254R), from E. coli (domain or fragment)
chain: MSNLSINESNDNSNVSILSNKSGAQSSTNSSPNLIVFKQPEDLSIQLQQQQQGTQEDTPEEEEEEEEEMEQITQLEVQQENQPDTLSSSPFISRPNSPLDDIIRPQGTSSPSLTIRDSYSSQVDINISNLHKSLNEMRLSTDPVDNNNNNNKVNKNNPTNSDISNDDIITIDNLTPSRIQPKNISPWRQFRPTLRGSPESTPRSLFQNKPNLKFNNGLSPTNGSRDMVTNNIATTTKSREEERNKRRVNYKIQRKLMKNFLQELIDRNNLDPHEFHTLLRRNNNNIMNNENNPLSTSLSQTSTLEIQHQNLQIELDEALELNKQLYNKIETANKEISDKDLQISNYESRINLINYSVDELIYILINEYDKNNYSHGGSNTTSPGKETLQQSISAQLEVKLNVLKLELMTRLDQSHQYNNKPHDLFTPPYTSSEYGVSTNNVANKNDLEGYIHIIEDLIKTVDELELTCENYKANKNELQNQLVEQINESIRIKNNFQIMSNKFNQLRQSLSEKENDKNLDEFSKNNHQQQQQQQIQQLEQKLIEYEKCITILQDELDQYKQPSDTTNTTNNNNNNNNNNNRSSYSSYNNHRNSSLNELN
notes: The cloning of the E. coli construct of this mutant is not described; also called Spc72^3R mutant; source: E. coli BL21 CodonPlus-RIL, purified (Ni-TED)
For B3, the “fold lower binding efficiency compared to Spc72^1-599” value [7] was 1.7 fold.

B4: His-GFP-Spc72^429-599 (domain or fragment, C. albicans, UniProt Q5AGV5 429-599, looked up)
chain: YTSSEYGVSTNNVANKNDLEGYIHIIEDLIKTVDELELTCENYKANKNELQNQLVEQINESIRIKNNFQIMSNKFNQLRQSLSEKENDKNLDEFSKNNHQQQQQQQIQQLEQKLIEYEKCITILQDELDQYKQPSDTTNTTNNNNNNNNNNNRSSYSSYNNHRNSSLNELN
notes: also called second coiled-coil module; source: E. coli BL21 CodonPlus-RIL, purified (Ni-TED); not shown: GFP, N-terminal, kept
B4: binds [5].

B5: His-GFP-Spc72^430-480 (domain or fragment, C. albicans, UniProt Q5AGV5 430-480, looked up)
chain: TSSEYGVSTNNVANKNDLEGYIHIIEDLIKTVDELELTCENYKANKNELQN
notes: Spc72, C. albicans, codons 430-480; source: E. coli BL21 CodonPlus-RIL; not shown: GFP, N-terminal, kept
B5: binds [5].

B6: His-GFP-Spc72^300-350 (domain or fragment, C. albicans, UniProt Q5AGV5 300-350, looked up)
chain: QTSTLEIQHQNLQIELDEALELNKQLYNKIETANKEISDKDLQISNYESRI
notes: Spc72, C. albicans, codons 300-350; source: E. coli BL21 CodonPlus-RIL; not shown: GFP, N-terminal, kept
B6: binds [5].

B7: His-Spc72^291-599 (domain or fragment, C. albicans, UniProt Q5AGV5 291-599, looked up)
chain: NNPLSTSLSQTSTLEIQHQNLQIELDEALELNKQLYNKIETANKEISDKDLQISNYESRINLINYSVDELIYILINEYDKNNYSHGGSNTTSPGKETLQQSISAQLEVKLNVLKLELMTRLDQSHQYNNKPHDLFTPPYTSSEYGVSTNNVANKNDLEGYIHIIEDLIKTVDELELTCENYKANKNELQNQLVEQINESIRIKNNFQIMSNKFNQLRQSLSEKENDKNLDEFSKNNHQQQQQQQIQQLEQKLIEYEKCITILQDELDQYKQPSDTTNTTNNNNNNNNNNNRSSYSSYNNHRNSSLNELN
notes: source: E. coli, purified (Ni-TED for pull-downs; Ni-NTA and SEC for HX-MS, SEC-MALS and mass photometry); not shown: His6, N-terminal, kept
For B7, the “stoichiometry N” value [8] was 2.
